Test [1] has as its target T1, human 5B6, full length, membrane bound on cells (human, UniProt Q6UXN8 1-241).
T1 construct: also called h5B6; hCLEC9A
Put plainly: flow cytometry on live 293T cells transiently transfected with full length untagged h5B6. How it is done:
(§1) To identify binding partners for the 5B6 molecule, the inventors generated the soluble FLAG-tagged m5B6 and h5B6, and a control soluble FLAG-tagged C-type lectin Cire. […] Thus, soluble 5B6 can interact with membrane bound 5B6 in a cross-species manner.
(§2) Binding assays were performed in binding buffer (PBS containing 0.2% BSA/and 0.02% sodium azide), on ice. Cells were washed 3 times with PBS to remove serum proteins, then resuspended in binding buffer. Cells were incubated with either (1) biotinylated soluble Clec9A and controls, and detected with SA-PE, or (2) soluble FLAG-tagged Clec9A, biotinylated anti-FLAG mAb 9H10, then detected with SA-PE. Live cells were gated on forward and side scatter, or by propidium iodide (PI) exclusion, whereas dead cells were gated on forward and side scatter, or by PI inclusion. Analysis of soluble Clec9A binding was performed by flow cytometry using a FACScan (Becton Dickinson).
In general terms: Flow cytometry measures light scatter and fluorescence of single cells or particles in a stream.

The target in test [2] is T2, mouse 5B6, full length, membrane bound on cells (mouse).
T2 construct: also called m5B6; mClec9A
T2 chain: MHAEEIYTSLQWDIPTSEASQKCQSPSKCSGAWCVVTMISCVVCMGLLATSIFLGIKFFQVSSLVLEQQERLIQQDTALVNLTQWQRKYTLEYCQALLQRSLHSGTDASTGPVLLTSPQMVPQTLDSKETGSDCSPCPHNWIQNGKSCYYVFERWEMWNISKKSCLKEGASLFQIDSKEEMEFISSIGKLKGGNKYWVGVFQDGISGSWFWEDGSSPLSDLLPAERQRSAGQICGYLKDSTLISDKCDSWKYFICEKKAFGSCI
Put plainly: flow cytometry on live 293T cells transiently transfected with full length untagged m5B6. How it is done:
as §1, §2

T1 sequence (Q6UXN8 whole entry): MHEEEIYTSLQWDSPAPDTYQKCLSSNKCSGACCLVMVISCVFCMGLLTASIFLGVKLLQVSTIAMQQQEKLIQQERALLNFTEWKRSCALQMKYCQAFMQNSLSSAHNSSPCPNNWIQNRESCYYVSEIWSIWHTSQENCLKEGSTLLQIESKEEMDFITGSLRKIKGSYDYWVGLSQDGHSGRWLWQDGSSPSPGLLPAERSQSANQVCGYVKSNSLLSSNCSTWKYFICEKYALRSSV

B1: soluble FLAG-tagged mouse 5B6 (full ectodomain: stalk/hinge and CTLD) (receptor)
chain: ASISARQNSGLHHILDAQKMVWNHRGARQDYKDDDDKTREQQERLIQQDTALVNLTQWQRKYTLEYCQALLQRSLHSGTDASTGPVLLTSPQMVPQTLDSKETGSDCSPCPHNWIQNGKSCYYVFERWEMWNISKKSCLKEGASLFQIDSKEEMEFISSIGKLKGGNKYWVGVFQDGISGSWFWEDGSSPLSDLLPAERQRSAGQICGYLKDSTLISDKCDSWKYFICEKKAFGSCI
notes: also called soluble m5B6; soluble mouse 5B6
B1: the binding result in test [1] and in test [2] was “binds” in each case.

B2: soluble FLAG-tagged human 5B6 (full ectodomain: stalk/hinge and CTLD) (receptor)
chain: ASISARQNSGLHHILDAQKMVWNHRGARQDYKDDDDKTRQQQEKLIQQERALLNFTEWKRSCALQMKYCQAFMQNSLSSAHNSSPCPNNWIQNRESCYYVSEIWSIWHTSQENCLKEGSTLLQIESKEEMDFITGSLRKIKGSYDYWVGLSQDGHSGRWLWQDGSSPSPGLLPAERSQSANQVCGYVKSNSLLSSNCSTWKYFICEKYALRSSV
notes: Built like m1; also called soluble h5B6; soluble human 5B6
For the molecule B2, the binding result in test [1] and in test [2] was “binds” throughout.

Source of the values: patent US20110110861A1 (WALTER AND ELIZA HALL INSTITUTE OF MEDICAL RESEARCH, published 2011).
